The values that follow come from paper PMC4644235 (Cell, 2015).

The labels stand for the following.
B1: Sem1 (natural protein)
chain: MSTDVAAAQAQSKIDLTKKKNEEINKKSLEEDDEFEDFPIDTWANGETIKSNAVTQTNIWEENWDDVEVDDDFTNELKAELDRYKRENQ
B2: Thp1(170-455) (domain or fragment)
chain: GKQRILLYLVNKLNNIYFRIESPQLCSNIFKNFQPKSMLAHFNEYQLDQQIEYRYLLGRYYLLNSQVHNAFVQFNEAFQSLLNLPLTNQAITRNGTRILNYMIPTGLILGKMVKWGPLRPFLSQETIDNWSVLYKHVRYGNIQGVSLWLRQNERHLCARQLLIVLLEKLPMVTYRNLIKTVIKSWTTEWGQNKLPYSLIERVLQLSIGPTFEDPGAQEITIYNGIHSPKNVENVLVTLINLGLLRANCFPQLQLCVVKKTTMIQEIVPPVNERITKMFPAHSHVLW

The experiment “Thp1(170-455)” concerns the target B2. Kind of experiment: crystal structure.
The target in the next experiment is T1, Sac3(222-572) (S. cerevisiae, UniProt P46674 222-572).
T1 sequence: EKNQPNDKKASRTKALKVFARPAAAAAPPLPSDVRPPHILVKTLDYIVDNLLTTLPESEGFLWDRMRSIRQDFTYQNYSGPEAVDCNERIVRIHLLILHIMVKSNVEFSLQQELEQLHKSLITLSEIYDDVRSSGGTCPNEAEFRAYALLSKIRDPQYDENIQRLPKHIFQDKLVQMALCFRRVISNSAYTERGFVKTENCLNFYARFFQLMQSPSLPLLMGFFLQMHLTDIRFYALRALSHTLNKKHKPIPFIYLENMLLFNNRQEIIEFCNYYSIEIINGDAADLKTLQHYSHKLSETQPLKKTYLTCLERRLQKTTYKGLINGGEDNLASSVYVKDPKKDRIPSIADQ
Kind of experiment: crystal structure.

Turning to B1, in the experiment with Thp1(170-455), the binding result is “binds”.

As to B2, the binding result with Sac3(222-572) was “binds”.
